B1: CD40L-29 (VHH)
VHH: EVQLVESGGGLVQPGGSLRLSCAASGRTFSSYAMGWFRQAPGKEREFVAVIYSSDGSTLYADSVKGRFTISADNSKNTAYLQMNSLKPEDTAVYYCAAEHTLGRPSRSQINYLWGQGTLVTVSS
B2: CD40L-18 (VHH)
VHH: EVQLVESGGGLVQPGGSLRLSCAASGSISSVNAMGWFRQAPGKEREFIAVIYWRDGSSLYADSVKGRFTISADNSKNTAYLQMNSLKPEDTAVYYCAAEPYGSGSSLISEYDWGQGTLVTVSS
B3: CD40L-27 (VHH)
VHH: B2 VHH with V31I, N32H, I108M
B4: CD40L-30 (VHH)
VHH: B2 VHH with S27N, S29F, S30R, V31I, I48V, W53S, R54S, S58T
B5: CD40L-20 (VHH)
VHH: EVQLVESGGGLVQPGGSLRLSCAASGVITLDSNAMGWFRQAPGKEREFVAAITWDGGYTRYADSVKGRFTISADNSKNTAYLQMNSLKPEDTAVYYCAAEATFPTWNRGSEADYDWGQGTLVTVSS
B6: CD40L-22 (VHH)
VHH: EVQLVESGGGLVQPGGSLRLSCAASGVTLDDYAMGWFRQAPGKERELVAAITNGGITTHYADSVKGRFTISADNSKNTAYLQMNSLKPEDTAVYYCAADVGPTVKWGQGTLVTVSS
B7: CD40L-59 (VHH)
VHH: B6 VHH with V27F, D31Y, A50S, T52S, I56L, T57S, H59Y
B8: CD40L-19 (VHH)
VHH: EVQLVESGGGLVQPGGSLRLSCAASGTITSAVFMGWFRQAPGKEREWVATISSHGLPVYADSVKGRFTISADNSKNTAYLQMNSLKPEDTAVYYCAIDEGMDYDGNFYDWGQGTLVTVSS
B9: CD40L-15 (VHH)
VHH: EVQLVESGGGLVQPGGSLRLSCAASGFTFDDYDMGWFRQAPGKERELVASITSGGSTNYADSVKGRFTISADNSKNTAYLQMNSLKPEDTAVYYCAIPHGIDLYTFDWGQGTLVTVSS
B10: CD40L-21 (VHH)
VHH: EVQLVESGGGLVQPGGSLRLSCAASGRIFSTYFMGWFRQAPGKEREFVAASYTGGSGGSTVYADSVKGRFTISADNSKNTAYLQMNSLKPEDTAVYYCAAWLNGGNRWGQGTLVTVSS
B11: CD40L-16 (VHH)
VHH: EVQLVESGGGLVQPGGSLRLSCAASGRIFSTYFMGWFRQAPGKEREWISTVYSNGHTYYADSVKGRFTISADNSKNTAYLQMNSLKPEDTAVYYCAAWLNGGNRWGQGTLVTVSS
B12: CD40L-52 (VHH)
VHH: B11 VHH with I48V, V51I, H56T, T57P, Y58A
B13: CD40L-28 (VHH)
VHH: EVQLVESGGGLVQPGGSLRLSCAASGVTVDYSGMGWFRQAPGKEREFVSAISSYSGNTYYADSVKGRFTISADNSKNTAYLQMNSLKPEDTAVYYCAAAYGGGLYRDPRSYDWGQGTLVTVSS
B14: CD40L-24 (VHH)
VHH: EVQLVESGGGLVQPGGSLRLSCAASGGAFSVYAMGWFRQAPGKEREFLASISGSGGSTYYADSVKGRFTISADNSKNTAYLQMNSLKPEDTAVYYCARDGGTYGMDVWGQGTLVTVSS
B15: CD40L-33 (VHH)
VHH: EVQLVESGGGLVQPGGSLRLSCAASGNIFINNAMGWFRQAPGKEREFVASIEWDGGGAYYADSVKGRFTISADNSKNTAYLQMNSLKPEDTAVYYCARDGGTYGMDVWGQGTLVTVSS
B16: CD40L-36 (VHH)
VHH: EVQLVESGGGLVQPGGSLRLSCAASGFSLDDYAMGWFRQAPGKEREFVASVNWSGKDTYYADSVKGRFTISADNSKNTAYLQMNSLKPEDTAVYYCARDGGTYGMDVWGQGTLVTVSS
B17: CD40L-25 (VHH)
VHH: EVQLVESGGGLVQPGGSLRLSCAASGFTFSRYEMGWFRQAPGKEREFVAAVTEDGSINYADSVKGRFTISADNSKNTAYLQMNSLKPEDTAVYYCAAVYVSTWGNGYDWGQGTLVTVSS
B18: CD40L-57 (VHH)
VHH: B17 VHH with A50T, V51I, D54G, S56A, I57R

Substitutions are numbered along the chain they refer to.

In the first test the target is T1, CD40L (UniProt P29965 113-261, limits assumed).
T1 construct: SPR analyte
T1 sequence (looked up): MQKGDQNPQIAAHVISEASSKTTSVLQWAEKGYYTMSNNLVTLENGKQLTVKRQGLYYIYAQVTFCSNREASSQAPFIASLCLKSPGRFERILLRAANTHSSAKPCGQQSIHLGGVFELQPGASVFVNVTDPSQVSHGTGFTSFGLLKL
Nature of the test: SPR (Carterra LSA), antibody amine-coupled, 1:1 model.
Description: SPR experiments were performed on a Carterra LSA SPR biosensor equipped with a HC30M chip at 25° C. in HBS-TE. Antibodies were diluted to 10 μg/mL and amine-coupled to the sensor chip by EDC/NHS activation, followed by ethanolamine HCl quenching. Increasing concentrations of analyte were flowed over the sensor chip in HBS-TE with 0.5 mg/mL BSA with 5-minute association and 15-minute dissociation. Following each injection cycle the surface was regenerated with 2× 30-second injections of IgG elution buffer (Thermo). Data were analyzed in Carterra's Kinetics Tool software with 1:1 binding model.
B1: binding was characterised by a dissociation constant (Kd) of 33.6 nM, the koff (commonly a measure of how fast the partners let go of each other) amounted to 0.000801 s⁻¹ and the kon (commonly the rate constant with which the complex forms) is 23800 M⁻¹ s⁻¹.
For the molecule B2, the Kd (in general, the free concentration of one partner at which half of the binding sites on the other are occupied at equilibrium, for simple one-to-one binding) worked out at 1.77 nM; the koff turned out to be 0.000391 s⁻¹; the kon was found to be 221000 M⁻¹ s⁻¹.
In the case of B3, the Kd turned out to be 0.749 nM, the koff came to 0.000155 s⁻¹ and the kon was determined as 207000 M⁻¹ s⁻¹.
The molecule B4 returned a Kd of 4.04 nM, a koff of 0.000633 s⁻¹ and a kon of 157000 M⁻¹ s⁻¹.
The corresponding values for B5 are 1.25 nM, 0.000271 s⁻¹ and 217000 M⁻¹ s⁻¹.
On to B6, for which binding was put at a Kd of 1.02 nM, the off-rate (koff) was 0.000394 s⁻¹ and the kon worked out at 387000 M⁻¹ s⁻¹.
On to B7, for which the Kd is 1.27 nM, the koff was found to be 0.000315 s⁻¹ and the kon came to 248000 M⁻¹ s⁻¹.
For B8, the Kd was 6.72 nM, the koff came to 0.00119 s⁻¹ and the kon amounted to 177000 M⁻¹ s⁻¹.
B9 had a Kd of 1.29 nM, a koff of 0.000384 s⁻¹ and a kon of 299000 M⁻¹ s⁻¹.
As to B10, binding was characterised by a dissociation constant (Kd) of 53.8 nM, the off-rate constant (koff) was found to be 0.00083 s⁻¹ and the kon is 15400 M⁻¹ s⁻¹.
B11: binding was characterised by a dissociation constant (Kd) of 7.93 nM, the koff was found to be 0.000278 s⁻¹ and the kon came to 35100 M⁻¹ s⁻¹.
B12 showed a Kd of 7.56 nM, a koff of 0.000453 s⁻¹ and an on-rate constant (kon) of 59900 M⁻¹ s⁻¹.
B13 displayed a Kd of 2.87 nM, a koff of 0.000445 s⁻¹ and a kon of 155000 M⁻¹ s⁻¹.
Taken in the same sequence, the figures for B14 were 5.74 nM, 0.000824 s⁻¹ and 143000 M⁻¹ s⁻¹.
Turning to B15, binding was put at a Kd of 2.63 nM, the koff came to 0.000546 s⁻¹ and the on-rate constant (kon) came out at 208000 M⁻¹ s⁻¹.
As for B16, the Kd came out at 0.819 nM, the koff is 0.000353 s⁻¹ and the kon stood at 431000 M⁻¹ s⁻¹.
Molecule B17 returned a Kd of 1.2 nM, a koff of 0.000176 s⁻¹ and a kon of 147000 M⁻¹ s⁻¹.
In turn, B18 had a Kd of 2.92 nM, a koff of 0.000769 s⁻¹ and a kon of 263000 M⁻¹ s⁻¹.

For the next test, the target named is T2, CD40L over-expressed on Expi293 cells (UniProt P29965 1-261, limits assumed).
T2 construct: whole, on cells; also called cytokine over-expressing Expi293 cells
T2 sequence (looked up): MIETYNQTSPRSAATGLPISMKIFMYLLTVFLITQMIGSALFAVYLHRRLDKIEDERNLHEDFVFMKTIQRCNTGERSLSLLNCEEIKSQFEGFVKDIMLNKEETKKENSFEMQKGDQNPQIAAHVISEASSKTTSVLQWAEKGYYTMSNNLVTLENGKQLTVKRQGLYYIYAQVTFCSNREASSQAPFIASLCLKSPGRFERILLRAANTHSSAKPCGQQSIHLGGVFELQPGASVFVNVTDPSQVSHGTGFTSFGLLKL
Nature of the test: flow cytometry, 100 nM antibody, CD40L-Expi293 vs parent Expi293 cells.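 Note: ratio is the mean fluorescence intensity on CD40L-overexpressing Expi293 cells divided by the mean fluorescence intensity on parental Expi293 cells.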
Description: All incubations and washes were in buffer containing PBS+1% BSA. MFI Ratio is defined by the mean fluorescence intensity (MFI) of the cytokine over-expressing Expi293 cell over the Expi293 parent cell. […] EC50 was calculated in GraphPad Prism.
Take B1: the “100 nM FACS (MFI Ratio)” value is 4.7 ratio.
As to B2, the “100 nM FACS (MFI Ratio)” value stood at 29.8 ratio.
Regarding B3, the “100 nM FACS (MFI Ratio)” value was 44.9 ratio.
For B4, the “100 nM FACS (MFI Ratio)” value is 24.3 ratio.
On the same count and under the same terms, the value for B5 was 24.6 ratio; that for B6 was 47.6 ratio.
Consider B7, for which the “100 nM FACS (MFI Ratio)” value came out at 66.7 ratio.
Consider B8, for which the “100 nM FACS (MFI Ratio)” value was found to be 1.9 ratio.
Take B9: the “100 nM FACS (MFI Ratio)” value was 29 ratio.
As to B10, the “100 nM FACS (MFI Ratio)” value was determined as 99.2 ratio.
Turning to B11, the “100 nM FACS (MFI Ratio)” value worked out at 47.8 ratio.
B12: the “100 nM FACS (MFI Ratio)” value was 91.9 ratio.
As to B13, the “100 nM FACS (MFI Ratio)” value came to 41.9 ratio.
Turning to B14, the “100 nM FACS (MFI Ratio)” value turned out to be 42.7 ratio.
The same measure, in the same setting: next, B15: 74.1 ratio; B16: 59.2 ratio.
Take B17: the “100 nM FACS (MFI Ratio)” value worked out at 93.2 ratio.
For B18, the “100 nM FACS (MFI Ratio)” value amounted to 64 ratio.
